Values belong to the binder of their own block, whether it stands above or below them.
How the values were obtained:
Assay in all cases: two-hybrid library CCmax;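 further: natural log of median RNA to DNA barcode read ratio; higher means stronger binding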
4H3417-AA = target: T1, 4H3417-AA; settings: mean of both orientations
T1 chain: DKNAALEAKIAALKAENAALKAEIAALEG

4H189-AA = target: T2, 4H189-AA; settings: mean of both orientations
T2 chain: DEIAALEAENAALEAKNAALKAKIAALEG

4H656-AA = target: T3, 4H656-AA; settings: mean of both orientations
T3 chain: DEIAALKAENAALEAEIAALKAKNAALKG

4H1064-AA = target: T4, 4H1064-AA
T4 chain: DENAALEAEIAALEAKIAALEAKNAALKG

Core_NNII-es_KKKK = target: T5, Core_NNII-es_KKKK; settings: mean of both orientations
T5 chain: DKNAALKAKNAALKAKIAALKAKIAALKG

P6-AA-1HAA-V = target: T6, P6-AA-1HAA-V; settings: mean of both orientations
T6 chain: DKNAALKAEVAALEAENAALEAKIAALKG

P6-AA-12HGe-S = target: T7, P6-AA-12HGe-S; settings: mean of both orientations
T7 chain: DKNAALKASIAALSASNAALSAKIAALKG

P6-AA-12HGe-Q = target: T8, P6-AA-12HGe-Q; settings: mean of both orientations
T8 chain: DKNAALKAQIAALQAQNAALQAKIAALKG

P6-AA-1HAA-D = target: T9, P6-AA-1HAA-D; settings: mean of both orientations
T9 chain: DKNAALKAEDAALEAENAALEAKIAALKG

P6-AA-1HGe-M = target: T10, P6-AA-1HGe-M
T10 chain: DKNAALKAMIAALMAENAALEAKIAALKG

P6-AA-1HGe-S = target: T11, P6-AA-1HGe-S; settings: mean of both orientations
T11 chain: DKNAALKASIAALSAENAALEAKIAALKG

P6-AA-1HGe-A = target: T12, P6-AA-1HGe-A; settings: mean of both orientations
T12 chain: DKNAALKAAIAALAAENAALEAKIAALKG

P6-AA-12HGe-H = target: T13, P6-AA-12HGe-H; settings: mean of both orientations
T13 chain: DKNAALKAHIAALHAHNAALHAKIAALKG

P6-AA-1HGe-Q = target: T14, P6-AA-1HGe-Q; settings: mean of both orientations
T14 chain: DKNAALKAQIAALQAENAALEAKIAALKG

P6-AA-1HAA-H = target: T15, P6-AA-1HAA-H; settings: mean of both orientations
T15 chain: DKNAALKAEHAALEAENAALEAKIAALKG

4H1350-AA = target: T16, 4H1350-AA
T16 chain: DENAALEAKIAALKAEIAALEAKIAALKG

4H2687-AA = target: T17, 4H2687-AA; settings: mean of both orientations
T17 chain: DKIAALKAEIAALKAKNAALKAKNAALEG

4H2536-AA = target: T18, 4H2536-AA; settings: mean of both orientations
T18 chain: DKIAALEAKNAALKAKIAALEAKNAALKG

4H2238-AA = target: T19, 4H2238-AA; settings: mean of both orientations
T19 chain: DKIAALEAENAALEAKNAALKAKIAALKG

4H2726-AA = target: T20, 4H2726-AA; settings: mean of both orientations
T20 chain: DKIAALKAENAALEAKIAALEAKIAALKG

4H816-AA = target: T21, 4H816-AA; settings: mean of both orientations
T21 chain: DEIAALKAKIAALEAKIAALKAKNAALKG

4H3664-AA = target: T22, 4H3664-AA; settings: mean of both orientations
T22 chain: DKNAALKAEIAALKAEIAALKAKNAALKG

4H140-AA = target: T23, 4H140-AA; settings: mean of both orientations
T23 chain: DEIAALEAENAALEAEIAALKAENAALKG

4H535-AA = target: T24, 4H535-AA; settings: mean of both orientations
T24 chain: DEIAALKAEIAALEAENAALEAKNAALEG

4H895-AA = target: T25, 4H895-AA; settings: mean of both orientations
T25 chain: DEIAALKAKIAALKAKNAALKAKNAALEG

4H3974-AA = target: T26, 4H3974-AA; settings: mean of both orientations
T26 chain: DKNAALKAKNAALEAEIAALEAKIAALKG

4H2760-AA = target: T27, 4H2760-AA; settings: mean of both orientations
T27 chain: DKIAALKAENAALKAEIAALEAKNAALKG

P5-AA-1HAA-K = target: T28, P5-AA-1HAA-K; settings: mean of both orientations
T28 chain: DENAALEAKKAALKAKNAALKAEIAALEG

P5-AA-12HGe-A = target: T29, P5-AA-12HGe-A; settings: mean of both orientations
T29 chain: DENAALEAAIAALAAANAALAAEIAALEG

P5-AA-1HGe-A = target: T30, P5-AA-1HGe-A; settings: mean of both orientations
T30 chain: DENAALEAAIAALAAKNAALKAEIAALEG

P5-AA-1HGe-M = target: T31, P5-AA-1HGe-M; settings: mean of both orientations
T31 chain: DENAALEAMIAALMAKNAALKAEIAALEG

P5-AA-1HGe-R = target: T32, P5-AA-1HGe-R; settings: mean of both orientations
T32 chain: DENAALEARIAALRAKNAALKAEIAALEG

P6-AA-12HAA-Y = target: T33, P6-AA-12HAA-Y; settings: mean of both orientations
T33 chain: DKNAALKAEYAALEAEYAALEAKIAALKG

P6-AA-12HAA-V = target: T34, P6-AA-12HAA-V; settings: mean of both orientations
T34 chain: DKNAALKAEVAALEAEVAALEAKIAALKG

4H2219-AA = target: T35, 4H2219-AA; settings: mean of both orientations
T35 chain: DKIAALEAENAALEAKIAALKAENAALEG

4H1738-AA = target: T36, 4H1738-AA; settings: mean of both orientations
T36 chain: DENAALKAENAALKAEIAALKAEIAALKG

4H1639-AA = target: T37, 4H1639-AA; settings: mean of both orientations
T37 chain: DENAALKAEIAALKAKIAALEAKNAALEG

O4-AA = target: T38, O4-AA; settings: mean of both orientations
T38 chain: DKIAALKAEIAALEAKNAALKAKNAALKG

APC8191-AA = target: T39, APC8191-AA; settings: mean of both orientations
T39 chain: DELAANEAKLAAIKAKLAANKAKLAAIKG

4H3330-AA = target: T40, 4H3330-AA; settings: mean of both orientations
T40 chain: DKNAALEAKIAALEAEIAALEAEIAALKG

APC1015-AA = target: T41, APC1015-AA
T41 chain: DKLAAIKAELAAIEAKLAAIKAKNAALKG

APC6108-AA = target: T42, APC6108-AA; settings: mean of both orientations
T42 chain: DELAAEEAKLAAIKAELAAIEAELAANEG

interaction score (4H3417-AA): -1.43
interaction score (4H189-AA): -1.4
interaction score (4H656-AA): -1.36
interaction score (4H1064-AA): 0.0437
Binder: DENAALEAEIAALEAKIAALEAKNAALKG [4H1064-AA]

interaction score (Core_NNII-es_KKKK): 1.83
Binder: DENAALEAENAALEAEIAALEAEIAALEG [4H1153-AA]

interaction score (P6-AA-1HAA-V): 2.18
interaction score (P6-AA-12HGe-S): -0.834
interaction score (P6-AA-12HGe-Q): 1.69
interaction score (P6-AA-1HAA-D): 0.667
interaction score (P6-AA-1HGe-M): 2.24
interaction score (P6-AA-1HGe-S): 2.27
interaction score (P6-AA-1HGe-A): 2.14
interaction score (P6-AA-12HGe-H): -1.23
interaction score (P6-AA-1HGe-Q): 2.02
interaction score (P6-AA-1HAA-H): 2.06
Binder: DENAALEAKIAALKAKNAALKAEIAALEG [4H1401-AA]

interaction score (4H1350-AA): 2.09
interaction score (4H2687-AA): -0.889
interaction score (4H2536-AA): -0.188
interaction score (4H2238-AA): -1.14
interaction score (4H2726-AA): -0.0467
interaction score (4H816-AA): 1.16
interaction score (4H3664-AA): 0.037
Binder: DENAALEAKIAALKAEIAALEAKIAALKG [4H1350-AA]

interaction score (4H140-AA): -1.43
interaction score (4H535-AA): -1.14
interaction score (4H895-AA): -1.61
Binder: DENAALEAENAALKAKIAALKAEIAALEG [4H1257-AA]

interaction score (4H3974-AA): -0.0812
interaction score (4H2760-AA): 1.68
Binder: DEIAALEAENAALKAKNAALKAEIAALEG [4H249-AA]

interaction score (P5-AA-1HAA-K): 2.15
interaction score (P5-AA-12HGe-A): 0.833
interaction score (P5-AA-1HGe-A): 2.06
interaction score (P5-AA-1HGe-M): 2.26
interaction score (P5-AA-1HGe-R): 2.23
Binder: DKNAALKAEIAALEAENAALEAKIAALKG [4H3606-AA]

interaction score (P6-AA-12HAA-Y): 2.29
interaction score (P6-AA-12HAA-V): 2.15
Binder: DENAALEAKIAALKAKIAALKAEIAALEG [4H1385-AA]

interaction score (4H2219-AA): -1.54
interaction score (4H1738-AA): -0.841
interaction score (4H1639-AA): -1.38
Binder: DENAALKAEIAALKAENAALKAEIAALKG [4H1626-AA]

interaction score (O4-AA): -0.185
Binder: DEIAALEAENAALEAKIAALKAENAALEG [4H171-AA]

interaction score (APC8191-AA): -1.67
interaction score (4H3330-AA): -1.3
interaction score (APC1015-AA): -1.28
interaction score (APC6108-AA): -2.14
Binder: DENAALKAKIAALEAKNAALEAKIAALEG [4H1845-AA]
